Experimental data from publication PMC3045457, “Evolution of Acetylcholinesterase and Butyrylcholinesterase in the Vertebrates: An Atypical Butyrylcholinesterase from the Medaka Oryzias latipes” (PLoS ONE, 2011).
Counter-ions that a name gives are not always drawn. Like-named read-outs stand apart in the source and are kept apart here.

Key:
[1] = target: T1, atypical BChE from O. latipes (Oryzias latipes, UniProt D5L5S0); assay: Ellman assay, COS-7 extract, three-parameter logistic fit; type: biochemical
T1 construct: GPI-anchored amphiphilic dimer (G2a)
T1 sequence (D5L5S0 26-589): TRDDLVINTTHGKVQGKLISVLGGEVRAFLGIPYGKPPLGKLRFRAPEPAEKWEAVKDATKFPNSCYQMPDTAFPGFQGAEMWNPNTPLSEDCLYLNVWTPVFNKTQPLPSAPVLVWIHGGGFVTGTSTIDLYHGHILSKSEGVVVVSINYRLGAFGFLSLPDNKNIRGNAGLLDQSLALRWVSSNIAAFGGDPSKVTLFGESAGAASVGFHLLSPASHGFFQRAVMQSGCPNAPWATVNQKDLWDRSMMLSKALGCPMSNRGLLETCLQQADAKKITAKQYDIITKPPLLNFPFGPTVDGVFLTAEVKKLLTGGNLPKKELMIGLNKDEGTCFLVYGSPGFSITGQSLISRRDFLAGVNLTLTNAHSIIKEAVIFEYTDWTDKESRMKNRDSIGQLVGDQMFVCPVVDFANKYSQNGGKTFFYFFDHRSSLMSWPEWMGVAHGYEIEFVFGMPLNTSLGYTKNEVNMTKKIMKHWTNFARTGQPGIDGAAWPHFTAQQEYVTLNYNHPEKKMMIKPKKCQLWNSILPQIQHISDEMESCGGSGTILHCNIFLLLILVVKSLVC
Source text: Ellman assay, COS-7 extract, three-parameter logistic fit on atypical BChE from O. latipes

[2] = substrate: CC(=O)SCC[N+](C)(C)C; assay: Ellman assay, COS-7 extract, fit with substrate inhibition (Km, Kss, b); type: biochemical, Oryzias latipes; details: 100 mM NaHPO4 pH 7, 0.3 mM DTNB, 167 mM NaCl, 258 µM Triton X-100
Source text: (§1) Ellman assay, COS-7 extract, fit with substrate inhibition (Km, Kss, b) on atypical BChE from O. latipes

[3] = substrate: CCC(=O)SCC[N+](C)(C)C; assay: as above; type: biochemical, Oryzias latipes; details: 100 mM NaHPO4 pH 7, 0.3 mM DTNB, 167 mM NaCl, 258 µM Triton X-100
Source text: as §1

[4] = substrate: CCCC(=O)SCC[N+](C)(C)C; assay: as above; type: biochemical, Oryzias latipes; details: 100 mM NaHPO4 pH 7, 0.3 mM DTNB, 167 mM NaCl, 258 µM Triton X-100
Source text: as §1

CC(C)NP(=O)(NC(C)C)OP(=O)(NC(C)C)NC(C)C [iso-OMPA, N-[bis(propan-2-ylamino)phosphoryloxy-(propan-2-ylamino)phosphoryl]propan-2-amine]
IC50 ([1]; read-out: IC50 M): 4580 µM

C=CC[N+](C)(C)c1ccc(CCC(=O)CCc2ccc([N+](C)(C)CC=C)cc2)cc1 [BW284c51, [4-[5-[4-(dimethyl-prop-2-enyl-ammonio)phenyl]-3-oxo-pentyl]phenyl]-dimethyl-prop-2-enyl-azanium dibromide]
IC50 ([1]; read-out: IC50 M): 480 µM

CCN(CC)C(C)CN1c2ccccc2Sc2ccccc21 (stereo not shown) [ethopropazine, 10-(2-diethylaminopropyl) phenothiazine hydrochloride]
IC50 ([1]; read-out: IC50 M): 0.898 µM

CNC(=O)Oc1ccc2c(c1)[C@]1(C)CCN(C)[C@@H]1N2C [physostigmine, (3aS-cis)-1,2,3,3a,8,8a-hexahydro-1,3a,8-trimethylpyrrolo[2,3-b]indol-5-ol methylcarbamate]
IC50 [1]: 0.0585 µM

B1: atypical BChE from O. latipes (Oryzias latipes) (protein)
chain: T1 sequence (D5L5S0 26-589)
notes: GPI-anchored amphiphilic dimer (G2a)
Km [2]: 270 ± 18 µM | kcat [2]: 460 ± 18.3 s⁻¹ | kcat/Km [2]: 1.72e+06 ± 83300 M⁻¹ s⁻¹ | Km [3]: 156 ± 15 µM | kcat [3]: 512 ± 40 s⁻¹ | kcat/Km [3]: 3.33e+06 ± 83300 M⁻¹ s⁻¹ | Km [4]: 72 ± 6 µM | kcat [4]: 117 ± 5 s⁻¹ | kcat/Km [4]: 1.65e+06 ± 117000 M⁻¹ s⁻¹
